In patent US20260242478A1 (published 2026):
Where no end group is shown, it is not given here.

Key:
[1] = target: anti-CD28 scFv (VH - linker 1 - VL) (biotinylated (site not stated)); assay: same phage ELISA, wells pre-incubated with soluble CD28 (competitor)
[2] = target: T1, Anti-PSMA Fab (SEQ ID NOs: 19, 20); assay: phage binding ELISA; biotinylated anti-PSMA Fab captured on neutravidin plate, clonal phage supernatant, anti-M13 HRP detection
T1 construct: Biotinylated and captured on neutravidin coated plates in the phage ELISA; also called 006 PSMA Fab
Description: (§1) Clonal phage were harvested as crude supernatants and screened via standard ELISAs. […] Prior to the addition of clonal phage. wells were incubated with blocking buffer and PSMA antigen or blocking buffer alone. Without washing or aspirating, clonal phage supernatants were then added to the wells and incubated for a short time. Wells were then washed followed by detection of bound phage using a horse radish conjugated anti-M13 antibody.

[3] = target: T1, Anti-PSMA Fab (SEQ ID NOs: 19, 20); assay: phage binding ELISA; Fab-coated wells pre-incubated with PSMA antigen (competitor: PSMA), then clonal phage, anti-M13 HRP detection
Description: as §1

anti-CD28 Fab = assay: competition ELISA, peptide titrated 0-100 uM against 1 nM anti-CD28 Fab, plate-bound CD28 as competitor
[4] = target: T2, Anti-CD28 scFv (VH - linker 1 - VL) (biotinylated (site not stated)); assay: phage ELISA; biotinylated anti-CD28 scFv on neutravidin plate, wells pre-incubated with soluble CD28 as competitor, anti-M13-HRP detection
T2 construct: Biotinylated and captured on neutravidin-coated plates in the phage panning ELISA

[5] = target: T2, Anti-CD28 scFv (VH - linker 1 - VL); assay: phage ELISA; biotinylated anti-CD28 scFv on neutravidin plate, clonal phage supernatant, anti-M13-HRP detection;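 note: before phage addition, wells were pretreated with soluble CD28 protein in blocking buffer, or with blocking buffer only as the comparison, then phage were added without washing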

Chain of anti-CD28 Fab (VH, as listed by the source, chain 1 of 2): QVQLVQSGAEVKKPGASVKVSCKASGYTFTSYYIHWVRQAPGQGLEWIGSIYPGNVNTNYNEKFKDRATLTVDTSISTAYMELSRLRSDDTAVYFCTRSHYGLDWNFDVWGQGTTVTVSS
Chain of anti-CD28 Fab (VL, as listed by the source, chain 2 of 2): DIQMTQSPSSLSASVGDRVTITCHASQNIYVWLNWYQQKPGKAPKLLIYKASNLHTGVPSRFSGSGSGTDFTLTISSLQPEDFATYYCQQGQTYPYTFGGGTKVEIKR
Chain of anti-CD28 scFv (VH - linker 1 - VL) (biotinylated (site not stated)) (scFv, as listed by the source): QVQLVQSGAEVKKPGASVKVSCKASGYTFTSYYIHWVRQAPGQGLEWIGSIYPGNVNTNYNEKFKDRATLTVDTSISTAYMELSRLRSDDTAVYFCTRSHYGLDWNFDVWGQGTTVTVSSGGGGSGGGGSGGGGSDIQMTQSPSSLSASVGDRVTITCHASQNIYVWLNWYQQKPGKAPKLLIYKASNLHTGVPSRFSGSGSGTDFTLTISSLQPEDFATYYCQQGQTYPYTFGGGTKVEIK
T2 sequence (scFv, as listed by the source): as above

B1: Phage-35 (peptide, not shown: large carriers)
peptide: MDWCPRSLWHECFA
modifications: cysteine pairing not given here; also: fused to phage pIII, linker not given here
notes: Clonal phage supernatant
CD28 scFv signal in presence of CD28 [1]: 0.255

B2: Phage-36 (peptide, not shown: large carriers)
peptide: MDWCPRYLWHVCFA
modifications: cysteine pairing not given here; also: fused to phage pIII, linker not given here
notes: Clonal phage supernatant
CD28 scFv signal in presence of CD28 [1]: 0.226

NCWWHDFRAGHVVC (tested as crude phage supernatant) [Phage-1723 (clonal phage displaying the peptide of SEQ ID NO: 2007)]
Anti-PSMA Fab (SEQ ID NOs: 19, 20) signal [2]: 2.05 | Anti-PSMA Fab signal in the presence of PSMA [3]: 0.0972

IRCVGEGHDLVCIF (tested as crude phage supernatant) [Phage-1724 (clonal phage displaying the peptide of SEQ ID NO: 2008)]
Anti-PSMA Fab (SEQ ID NOs: 19, 20) signal [2]: 2.12 | Anti-PSMA Fab signal in the presence of PSMA [3]: 0.081

SIPCIPRDWLCPIK (tested as crude phage supernatant) [Phage-1725 (clonal phage displaying the peptide of SEQ ID NO: 2009)]
Anti-PSMA Fab (SEQ ID NOs: 19, 20) signal [2]: 1.8 | Anti-PSMA Fab signal in the presence of PSMA [3]: 0.239

ICQWIGATNAWVCY (tested as crude phage supernatant) [Phage-1726 (clonal phage displaying the peptide of SEQ ID NO: 2010)]
Anti-PSMA Fab (SEQ ID NOs: 19, 20) signal [2]: 1.82 | Anti-PSMA Fab signal in the presence of PSMA [3]: 0.326

HLFCWEGSDRCAWV (tested as crude phage supernatant) [Phage-1727 (clonal phage displaying the peptide of SEQ ID NO: 2011)]
Anti-PSMA Fab (SEQ ID NOs: 19, 20) signal [2]: 1.4 | Anti-PSMA Fab signal in the presence of PSMA [3]: 0.0753

PLCGTEEVWWECRL (tested as crude phage supernatant) [Phage-1728 (clonal phage displaying the peptide of SEQ ID NO: 2012)]
Anti-PSMA Fab (SEQ ID NOs: 19, 20) signal [2]: 1.57 | Anti-PSMA Fab signal in the presence of PSMA [3]: 0.0694

NAHCWLWVPAHCRV (tested as crude phage supernatant) [Phage-1729 (clonal phage displaying the peptide of SEQ ID NO: 2013)]
Anti-PSMA Fab (SEQ ID NOs: 19, 20) signal [2]: 1.35 | Anti-PSMA Fab signal in the presence of PSMA [3]: 0.0672

FGHCAGSPVFCAYW (tested as crude phage supernatant) [Phage-1730 (clonal phage displaying the peptide of SEQ ID NO: 2014)]
Anti-PSMA Fab (SEQ ID NOs: 19, 20) signal [2]: 1.06 | Anti-PSMA Fab signal in the presence of PSMA [3]: 0.054

NCFFAADIHWNFCT (tested as crude phage supernatant) [Phage-1731 (clonal phage displaying the peptide of SEQ ID NO: 2015)]
Anti-PSMA Fab (SEQ ID NOs: 19, 20) signal [2]: 1.48 | Anti-PSMA Fab signal in the presence of PSMA [3]: 0.18

FCQWIEATNAWLCY (tested as crude phage supernatant) [Phage-1732 (clonal phage displaying the peptide of SEQ ID NO: 2016)]
Anti-PSMA Fab (SEQ ID NOs: 19, 20) signal [2]: 1.06 | Anti-PSMA Fab signal in the presence of PSMA [3]: 0.119

FCGWMDGDVFWFCG (tested as crude phage supernatant) [Phage-1733 (clonal phage displaying the peptide of SEQ ID NO: 2017)]
Anti-PSMA Fab (SEQ ID NOs: 19, 20) signal [2]: 0.428 | Anti-PSMA Fab signal in the presence of PSMA [3]: 0.145

MNWCPKDIWYLCFN (peptide, not shown: large carriers, Clonal phage supernatant) [Phage-22]
CD28 scFv signal in presence of CD28 [1]: 0.168

MDWCPLHMWHECFS (peptide, not shown: large carriers, Clonal phage supernatant) [Phage-23]
CD28 scFv signal in presence of CD28 [1]: 0.151

ACAGHAWQYINKCL [Peptide-107]
IC50 (anti-CD28 Fab): > 100 µM

YCAAHAWQYINKCL [Peptide-108]
IC50 (anti-CD28 Fab): > 100 µM

YCAGAAWQYINKCL [Peptide-109]
IC50 (anti-CD28 Fab): > 100 µM

YCAGHAAQYINKCL [Peptide-110]
IC50 (anti-CD28 Fab): 3.16 µM

YCAGHAWAYINKCL [Peptide-111]
IC50 (anti-CD28 Fab): 12.3 µM

YCAGHAWQAINKCL [Peptide-112]
IC50 (anti-CD28 Fab): > 100 µM

YCAGHAWQYANKCL [Peptide-113]
IC50 (anti-CD28 Fab): 102 µM

YCAGHAWQYIAKCL [Peptide-114]
IC50 (anti-CD28 Fab): 5.49 µM

YCAGHAWQYINACL [Peptide-115]
IC50 (anti-CD28 Fab): > 100 µM

YCAGHAWQYINKCA [Peptide-116]
IC50 (anti-CD28 Fab): 98.6 µM

ACAAGASYAWPYCL [Peptide-99]
IC50 (anti-CD28 Fab): 21 µM

SCAAAASYAWPYCL [Peptide-100]
IC50 (anti-CD28 Fab): > 100 µM

SCAAGAAYAWPYCL [Peptide-101]
IC50 (anti-CD28 Fab): 7.42 µM

SCAAGASAAWPYCL [Peptide-102]
IC50 (anti-CD28 Fab): > 100 µM

SCAAGASYAAPYCL [Peptide-103]
IC50 (anti-CD28 Fab): > 100 µM

SCAAGASYAWAYCL [Peptide-104]
IC50 (anti-CD28 Fab): > 100 µM

SCAAGASYAWPACL [Peptide-105]
IC50 (anti-CD28 Fab): 13 µM

SCAAGASYAWPYCA [Peptide-106]
IC50 (anti-CD28 Fab): 76.4 µM

B3: Phage-417 clonal phage peptide IYWCPTAMWNRCSA (peptide)
peptide: IYWCPTAMWNRCSA
notes: tested as crude clonal phage supernatant
CD28 scFv signal in presence of CD28 [4]: 0.073 | CD28 scFv signal [5]: 0.817

B4: Phage-418 clonal phage peptide MYWCPKYMWSECFA (peptide)
peptide: MYWCPKYMWSECFA
notes: as for B3
CD28 scFv signal in presence of CD28 [4]: 0.099 | CD28 scFv signal [5]: 0.741

B5: Phage-422 clonal phage peptide MYWCPINMWDYCYA (peptide)
peptide: MYWCPINMWDYCYA
notes: as for B3
CD28 scFv signal in presence of CD28 [4]: 0.088 | CD28 scFv signal [5]: 0.109

B6: Phage-423 clonal phage peptide INLCPTPMWNRCWL (peptide)
peptide: INLCPTPMWNRCWL
notes: as for B3
CD28 scFv signal in presence of CD28 [4]: 0.101 | CD28 scFv signal [5]: 0.103

B7: Phage-424 clonal phage peptide ITQCPSTMWNRCSV (peptide)
peptide: ITQCPSTMWNRCSV
notes: as for B3
CD28 scFv signal in presence of CD28 [4]: 0.108 | CD28 scFv signal [5]: 0.098

B8: Phage-425 clonal phage peptide MDLCPTAMWNRCFY (peptide)
peptide: MDLCPTAMWNRCFY
notes: as for B3
CD28 scFv signal in presence of CD28 [4]: 0.084 | CD28 scFv signal [5]: 0.097

B9: Phage-426 clonal phage peptide MFLCPSAMWNRCFY (peptide)
peptide: MFLCPSAMWNRCFY
notes: as for B3
CD28 scFv signal in presence of CD28 [4]: 0.114 | CD28 scFv signal [5]: 0.094

B10: Phage-427 clonal phage peptide VILCPTTMWNRCFH (peptide)
peptide: VILCPTTMWNRCFH
notes: as for B3
CD28 scFv signal in presence of CD28 [4]: 0.084 | CD28 scFv signal [5]: 0.072

B11: Phage-428 clonal phage peptide MNWCPSTMWNRCLT (peptide)
peptide: MNWCPSTMWNRCLT
notes: as for B3
CD28 scFv signal in presence of CD28 [4]: 0.07 | CD28 scFv signal [5]: 0.065

B12: Phage-431 clonal phage peptide MAWCPADQWHECFN (peptide)
peptide: MAWCPADQWHECFN
notes: as for B3
CD28 scFv signal in presence of CD28 [4]: 0.456 | CD28 scFv signal [5]: 1.84

B13: Phage-432 clonal phage peptide IDWCPIIQGLPCFA (peptide)
peptide: IDWCPIIQGLPCFA
notes: as for B3
CD28 scFv signal in presence of CD28 [4]: 0.065 | CD28 scFv signal [5]: 0.368

B14: Phage-433 clonal phage peptide MAWCPWAQFDECLA (peptide)
peptide: MAWCPWAQFDECLA
notes: as for B3
CD28 scFv signal in presence of CD28 [4]: 0.078 | CD28 scFv signal [5]: 0.071

B15: Phage-434 clonal phage peptide IVWCPTTQWNRCAT (peptide)
peptide: IVWCPTTQWNRCAT
notes: as for B3
CD28 scFv signal in presence of CD28 [4]: 0.083 | CD28 scFv signal [5]: 0.067

B16: Phage-435 clonal phage peptide MDWCPRDRWVDCYA (peptide)
peptide: MDWCPRDRWVDCYA
notes: as for B3
CD28 scFv signal in presence of CD28 [4]: 0.403 | CD28 scFv signal [5]: 1.48

B17: Phage-436 clonal phage peptide MDWCPRDRWADCFN (peptide)
peptide: MDWCPRDRWADCFN
notes: as for B3
CD28 scFv signal in presence of CD28 [4]: 0.08 | CD28 scFv signal [5]: 1.35

B18: Phage-437 clonal phage peptide MDWCPVDRWADCFN (peptide)
peptide: MDWCPVDRWADCFN
notes: as for B3
CD28 scFv signal in presence of CD28 [4]: 0.315 | CD28 scFv signal [5]: 1.16

B19: Phage-440 clonal phage peptide MDWCPRDRWVDCFN (peptide)
peptide: MDWCPRDRWVDCFN
notes: as for B3
CD28 scFv signal in presence of CD28 [4]: 0.132 | CD28 scFv signal [5]: 0.911

B20: Phage-438 clonal phage peptide MDWCPMSRWAFCFD (peptide)
peptide: MDWCPMSRWAFCFD
notes: as for B3
CD28 scFv signal in presence of CD28 [4]: 0.115 | CD28 scFv signal [5]: 1

B21: Phage-439 clonal phage peptide MDWCPRDRWDVCFA (peptide)
peptide: MDWCPRDRWDVCFA
notes: as for B3
CD28 scFv signal in presence of CD28 [4]: 0.096 | CD28 scFv signal [5]: 0.924

B22: Phage-441 clonal phage peptide MDWCPRDRWDDCFF (peptide)
peptide: MDWCPRDRWDDCFF
notes: as for B3
CD28 scFv signal in presence of CD28 [4]: 0.183 | CD28 scFv signal [5]: 0.899

B23: Phage-29 (peptide, not shown: large carriers)
peptide: MDWCPRDLWVHCFA
modifications: cysteine pairing not given here; also: fused to phage pIII, linker not given here
notes: Clonal phage supernatant
CD28 scFv signal in presence of CD28 [1]: 0.179
